The text below walks through data of US20120316071A1.

Assay [1] has as its target rHuman CD44/Fc Chimera, CF (R&D Systems Cat#3660-CD) (human) (UniProt P16070). Briefly: Multispot ECL (MSD), antigen spotted on plate, Fab 280 nM; blank spot 1691.
The target of assay [2] is rHuman Notch-1/Fc Chimera, CF (R&D Systems Cat#3647-TK) (human) (UniProt P46531). The description is as above.
The target in assay [3] is rHuman ErbB2/Fc Chimera, CF (R&D Systems Cat#1129-ER) (human) (UniProt P04626). The description is as above.
In assay [4] the target is rHuman HGF R/c-MET/Fc Chimera, CF (R&D Systems Cat#358-MT/CF) (human) (UniProt P08581). The description is as above.
Sequence of rHuman HGF R/c-MET/Fc Chimera, CF (R&D Systems Cat#358-MT/CF) (human) (P08581 25-932, change not shown): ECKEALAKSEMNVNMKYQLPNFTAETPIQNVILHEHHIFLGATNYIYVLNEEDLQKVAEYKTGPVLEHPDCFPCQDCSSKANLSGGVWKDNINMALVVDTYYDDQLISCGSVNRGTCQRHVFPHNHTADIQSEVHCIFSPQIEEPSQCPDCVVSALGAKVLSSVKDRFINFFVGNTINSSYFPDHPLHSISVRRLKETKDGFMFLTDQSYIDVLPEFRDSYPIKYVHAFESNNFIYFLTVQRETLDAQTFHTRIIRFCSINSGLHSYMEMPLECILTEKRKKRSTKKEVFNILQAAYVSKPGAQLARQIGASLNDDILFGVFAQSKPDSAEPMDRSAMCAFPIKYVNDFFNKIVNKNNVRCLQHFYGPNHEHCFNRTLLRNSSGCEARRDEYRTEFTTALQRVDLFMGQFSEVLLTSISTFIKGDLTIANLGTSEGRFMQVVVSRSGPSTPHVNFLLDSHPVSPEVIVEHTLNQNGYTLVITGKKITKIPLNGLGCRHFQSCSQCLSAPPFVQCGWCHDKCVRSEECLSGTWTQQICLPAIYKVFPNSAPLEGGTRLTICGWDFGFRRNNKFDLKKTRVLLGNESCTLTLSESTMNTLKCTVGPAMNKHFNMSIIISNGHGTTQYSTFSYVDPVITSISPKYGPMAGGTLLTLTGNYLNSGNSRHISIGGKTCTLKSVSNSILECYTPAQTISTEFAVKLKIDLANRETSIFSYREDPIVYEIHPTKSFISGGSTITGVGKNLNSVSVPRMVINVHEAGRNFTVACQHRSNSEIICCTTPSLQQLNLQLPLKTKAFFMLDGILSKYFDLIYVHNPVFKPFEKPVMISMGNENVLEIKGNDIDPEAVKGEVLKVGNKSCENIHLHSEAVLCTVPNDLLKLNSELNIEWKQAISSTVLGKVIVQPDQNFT
Assay [5] addresses rHuman IGF-1 sR, (IGF-1 sR), CF (R&D Systems Cat#391-GR) (human) (UniProt P08069). The assay is described as above.
Assay [6] concerns the target rHuman P-Cadherin/Fc Chimera, CF (R&D Systems Cat#861-PC) (human) (UniProt P22223). The assay is described as above.
Assay [7] deals with rHuman CD44/Fc Chimera, CF (R&D Systems Cat#3660-CD) (human) (UniProt P16070). Briefly: Multispot ECL (MSD), antigen spotted on plate, Fab 17.5 nM; blank spot 304.
Assay [8] deals with rHuman Notch-1/Fc Chimera, CF (R&D Systems Cat#3647-TK) (human) (UniProt P46531). The description is as above.
In assay [9] the target is rHuman ErbB2/Fc Chimera, CF (R&D Systems Cat#1129-ER) (human) (UniProt P04626). Described as above.
For assay [10], the target named is rHuman HGF R/c-MET/Fc Chimera, CF (R&D Systems Cat#358-MT/CF) (human) (UniProt P08581). The assay is described as above.
Assay [11] has as its target rHuman IGF-1 sR, (IGF-1 sR), CF (R&D Systems Cat#391-GR) (human) (UniProt P08069). Described as above.
Assay [12] concerns the target rHuman P-Cadherin/Fc Chimera, CF (R&D Systems Cat#861-PC) (human) (UniProt P22223). The description is as above.
The target of assay [13] is rHuman CD44/Fc Chimera, CF (R&D Systems Cat#3660-CD) (human) (UniProt P16070). Briefly: Multispot ECL (MSD), antigen spotted on plate, Fab 4.375 nM; blank spot 305.
Assay [14] addresses rHuman Notch-1/Fc Chimera, CF (R&D Systems Cat#3647-TK) (human) (UniProt P46531). Described as above.
In assay [15] the target is rHuman ErbB2/Fc Chimera, CF (R&D Systems Cat#1129-ER) (human) (UniProt P04626). Described as above.
Assay [16] has as its target rHuman HGF R/c-MET/Fc Chimera, CF (R&D Systems Cat#358-MT/CF) (human) (UniProt P08581). Described as above.
The target of assay [17] is rHuman IGF-1 sR, (IGF-1 sR), CF (R&D Systems Cat#391-GR) (human) (UniProt P08069). The description is as above.
Assay [18] addresses rHuman P-Cadherin/Fc Chimera, CF (R&D Systems Cat#861-PC) (human) (UniProt P22223). The assay is described as above.
Assay [19] addresses rHuman CD44/Fc Chimera, CF (R&D Systems Cat#3660-CD) (human) (UniProt P16070). Briefly: Multispot ECL (MSD), antigen spotted on plate, Fab 70 nM; blank spot 635.
For assay [20], the target named is rHuman Notch-1/Fc Chimera, CF (R&D Systems Cat#3647-TK) (human) (UniProt P46531). Described as above.
Assay [21] deals with rHuman ErbB2/Fc Chimera, CF (R&D Systems Cat#1129-ER) (human) (UniProt P04626). Described as above.
Assay [22] deals with rHuman HGF R/c-MET/Fc Chimera, CF (R&D Systems Cat#358-MT/CF) (human) (UniProt P08581). The assay is described as above.
Assay [23] concerns the target rHuman IGF-1 sR, (IGF-1 sR), CF (R&D Systems Cat#391-GR) (human) (UniProt P08069). The description is as above.
Assay [24] deals with rHuman P-Cadherin/Fc Chimera, CF (R&D Systems Cat#861-PC) (human) (UniProt P22223). Described as above.
The target of assay [25] is rHuman EGF R/Fc Chimera, CF (R&D Systems Cat#344-ER) (human) (UniProt P00533). Briefly: MSD Multispot ECL, antigen spotted on plate, Fab 57.5 nM; blank spot 954.
Assay [26] shares this target. Briefly: MSD Multispot ECL, antigen spotted on plate, Fab 14.375 nM; blank spot 738.
For assay [27] the target is unchanged. Briefly: MSD Multispot ECL, antigen spotted on plate, Fab 230 nM; blank spot 1656.
Assay [28] has the same target. Briefly: MSD Multispot ECL, antigen spotted on plate, Fab 920 nM; blank spot 4082.
Assay [29] concerns the target rHuman ErbB2/Fc Chimera, CF (R&D Systems Cat#1129-ER) (human) (UniProt P04626). Briefly: Multispot ECL (MSD) assay, antigen spotted on plate, Fab at […]; blank spot 2945.
Assay [30] has the same target. Briefly: Multispot ECL (MSD) assay, antigen spotted on plate, Fab at 0.096 µM; blank spot 917.
For assay [31] the target is unchanged. Briefly: Multispot ECL (MSD) assay, antigen spotted on plate, Fab at […]; blank spot 751.

“Fab VH1-46_IGHD2-15*01_IGHJ2*01 & L12_IGKJ1*01”: the ECL signal worked out at 4070 in assay [1]; 4380 in [2]; 3950 in assay [3]; 3560 in assay [4]; 3530 in [5]; 5400 in assay [6]. Moreover, the ECL signal in assay [7] came to 664; in assay [8] it was 680; in [9], 541; in assay [10], 565; in [11] it was 626; in [12] it was 949. Further, the ECL signal in assay [13] stood at 424; in [14] it was 480; in assay [15], 384; in [16], 193; in assay [17], 369; in [18] it was 469. Besides, the ECL signal in [19] was 1370; in [20], 1490; in [21] it was 1360; in [22], 1290; in assay [23], 1320; in assay [24] it was 1820.
With “Fab VH1-46_IGHD3-10*01_IGHJ4*01 & L12_IGKJ1*01”, the ECL signal in assay [25] was 3860; in [26], 2670; in assay [27], 5720; in assay [28], 13400.
For “Fab VH1-46_IGHD6-13*01_IGHJ4*01 & A27_IGKJ1*01”, the ECL signal in [29] was found to be 11300; in [30] it was 3360; in assay [31], 2310.
